Target: T1, p-hydroxyphenylpyruvate dioxygenase (HPPD) (Arabidopsis thaliana) (UniProt P93836)
T1 sequence: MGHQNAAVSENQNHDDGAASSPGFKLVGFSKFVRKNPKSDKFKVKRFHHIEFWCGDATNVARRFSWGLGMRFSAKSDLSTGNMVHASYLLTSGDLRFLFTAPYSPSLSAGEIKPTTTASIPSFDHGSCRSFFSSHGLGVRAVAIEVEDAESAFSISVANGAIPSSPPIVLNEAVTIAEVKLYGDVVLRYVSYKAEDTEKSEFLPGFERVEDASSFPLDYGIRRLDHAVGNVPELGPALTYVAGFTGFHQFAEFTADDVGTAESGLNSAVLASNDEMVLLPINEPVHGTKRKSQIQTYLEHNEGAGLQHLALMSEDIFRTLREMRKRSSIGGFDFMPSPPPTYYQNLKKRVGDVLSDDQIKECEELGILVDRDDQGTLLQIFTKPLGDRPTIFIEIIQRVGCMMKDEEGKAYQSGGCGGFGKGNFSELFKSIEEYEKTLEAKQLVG
Test: filter
Conditions: 500 nM HPPD, 10% DMSO

GGGAGAGGAGGGAGAUAGAUAUCAANNNNNNNNNNNNNNNNNNNNNNNNNNNNNNNNNNNNNNNNNNNNNNNAGUUUGUCCUCACGGUGGAUGG [S115B enriched library (cycle 9)]
binding signal (% RNA retained): 10
